167 variants from the RNAGym collection of RNA variant scans (doi:10.7554/elife.80360) can be followed below.

B1: Hairpin Ribozyme (parent)
chain: GUCCUCUUUCACGUGCGCGUGAAAGAGAGAAGUGAACCAGAGAAACACACGUUGUGGUAUAUUACCUGGUA

This data set covers variants of B1. The data set can be described thus: self-cleavage, relative activity (ratio to wild type); higher = more cleavage; co-transcriptional.
Turning to U2G A28U, the self-cleavage is 0.32.

As for C37U A43U, the self-cleavage amounted to 0.0491.

C10G G40A: the self-cleavage came out at 0.194.

Regarding U7C U14A, the self-cleavage turned out to be 0.808.

As for G15A G32C, the self-cleavage is 0.174.

Regarding G13A A31C, the self-cleavage came out at 0.11.

With G51U C65G, the self-cleavage amounted to 0.354.

With A41U U60G, the self-cleavage stood at 1.15.

Turning to U8G G40A, the self-cleavage turned out to be 0.264.

With U2C G15A, the self-cleavage amounted to 0.126.

U7A A35C: the self-cleavage was determined as 1.28.

As for U9G G13U, the self-cleavage came out at 0.678.

For the variant C4U C50G, the self-cleavage is 0.11.

With U7A G42A, the self-cleavage came out at 0.166.

Turning to A31U C48U, the self-cleavage turned out to be 0.109.

As to A39G U67A, the self-cleavage turned out to be 0.126.

With G34A U63G, the self-cleavage was found to be 0.157.

As to C66U U67C, the self-cleavage came out at 0.326.

Take U8G A64U: the self-cleavage amounted to 0.146.

In the case of U7C A45U, the self-cleavage was found to be 0.231.

For U14C U53A, the self-cleavage was 1.18.

For A28C A30U, the self-cleavage is 0.126.

C37U U55C: the self-cleavage turned out to be 0.172.

In the case of C38G A45C, the self-cleavage stood at 0.0432.

For U8C U60G, the self-cleavage was 0.489.

Consider C10G A49C, for which the self-cleavage amounted to 0.198.

As for G19A A26C, the self-cleavage came to 0.541.

For the variant G21U U60A, the self-cleavage is 0.851.

As to G13U G51A, the self-cleavage is 0.745.

U60G G68U: the self-cleavage worked out at 0.296.

In the case of A59U C65U, the self-cleavage was 0.13.

With A35G A59U, the self-cleavage was 0.229.

In the case of A24G A44G, the self-cleavage was 0.152.

Consider G32U A39C, for which the self-cleavage was 0.116.

For the variant C16U A44G, the self-cleavage turned out to be 0.101.

For U5A G40C, the self-cleavage came to 0.159.

For the variant A45C C50U, the self-cleavage worked out at 0.0931.

C10A A71G: the self-cleavage was found to be 0.915.

A28G G56C: the self-cleavage was determined as 0.0641.

In the case of U8G A24G, the self-cleavage turned out to be 0.632.

Regarding U60G U67A, the self-cleavage was 0.144.

On to G29A U53G, for which the self-cleavage was found to be 0.0705.

For U2G U60C, the self-cleavage was 0.373.

U9C G17A: the self-cleavage was 0.805.

For U8C A59G, the self-cleavage came out at 0.203.

For the variant A41C A45G, the self-cleavage was found to be 0.257.

Consider A41C A45U, for which the self-cleavage turned out to be 0.202.

Turning to C6U U70G, the self-cleavage is 0.588.

For G29U C38U, the self-cleavage came to 0.1.

U2A A59G: the self-cleavage came out at 0.156.

With A47C G56C, the self-cleavage is 0.161.

For G54U U63G, the self-cleavage was determined as 0.159.

Consider G1C U8C, for which the self-cleavage came to 0.172.

Consider C3G C66G, for which the self-cleavage stood at 0.0857.

Regarding G13U A26G, the self-cleavage amounted to 0.675.

With C4A A44U, the self-cleavage was found to be 0.239.

For U5A G19A, the self-cleavage was 0.395.

Regarding C6A U67A, the self-cleavage turned out to be 0.144.

Turning to G25C G51C, the self-cleavage came to 0.435.

Turning to A36U G56C, the self-cleavage is 0.131.

On to G40U U52C, for which the self-cleavage amounted to 0.333.

Take C16G C46G: the self-cleavage is 0.183.

As for G54U G68A, the self-cleavage came to 0.22.

In the case of A30G A44U, the self-cleavage worked out at 0.227.

With C3A G34U, the self-cleavage was 1.34.

Regarding U8G G51A, the self-cleavage is 0.739.

On to C37G C66G, for which the self-cleavage was determined as 0.154.

As to G25C C37A, the self-cleavage was found to be 0.281.

With G13A U52G, the self-cleavage was determined as 0.5.

As to G13U C18A, the self-cleavage amounted to 0.915.

As to G29C C66G, the self-cleavage was 0.137.

Turning to A41U G57C, the self-cleavage was found to be 0.178.

As for C6U G42A, the self-cleavage turned out to be 0.275.

Take C3G G21A: the self-cleavage was 0.173.

Take A30G G40C: the self-cleavage came to 0.131.

As for G1A G68U, the self-cleavage turned out to be 0.176.

Take C10U U70C: the self-cleavage was 0.637.

U33A U53C: the self-cleavage turned out to be 0.264.

As to U52C U53C, the self-cleavage was determined as 1.07.

Consider C18G C48G, for which the self-cleavage is 0.138.

For the variant U52C C66G, the self-cleavage turned out to be 0.244.

As to A22G A47C, the self-cleavage amounted to 0.27.

For the variant U9C C46G, the self-cleavage turned out to be 0.167.

Regarding A47C U70A, the self-cleavage came out at 0.264.

Regarding A30C U60C, the self-cleavage stood at 0.279.

For the variant A26U G29C, the self-cleavage is 0.135.

Take A11C U63G: the self-cleavage was determined as 0.134.

On to C3U C37G, for which the self-cleavage amounted to 0.262.

A24G A61U: the self-cleavage was found to be 0.084.

For the variant C10U A44G, the self-cleavage amounted to 0.117.

With U20C C38U, the self-cleavage was 0.415.

For the variant U2A G19A, the self-cleavage came out at 0.216.

In the case of U53C U62G, the self-cleavage worked out at 0.122.

Regarding G25A A64G, the self-cleavage was determined as 0.469.

C46A G54A: the self-cleavage was determined as 0.126.

On to C12G A61C, for which the self-cleavage amounted to 0.24.

On to U7C A41C, for which the self-cleavage is 1.01.

Regarding C37G G56C, the self-cleavage was 0.176.

As for G15U G54A, the self-cleavage was found to be 0.695.

Regarding U7A U20C, the self-cleavage was found to be 0.774.

As to G40U U53G, the self-cleavage is 0.151.

U9C G69U: the self-cleavage was 0.256.

In the case of C16A U60G, the self-cleavage turned out to be 0.451.

As to G29A, the self-cleavage was found to be 0.126.

On to A22C G34A, for which the self-cleavage stood at 1.04.

Take A47G G56A: the self-cleavage was found to be 0.103.

In the case of G34U U70A, the self-cleavage came to 1.43.

For C48A A71C, the self-cleavage came to 0.343.

For the variant U8C U67C, the self-cleavage amounted to 0.159.

U8C U67G: the self-cleavage amounted to 0.226.

On to G13A U55A, for which the self-cleavage amounted to 0.333.

Turning to A11G G42A, the self-cleavage came to 0.201.

For the variant A26C A39G, the self-cleavage was 0.222.

For C6A G68U, the self-cleavage came to 0.181.

C12G G54U: the self-cleavage worked out at 0.537.

As to U55C C66G, the self-cleavage worked out at 0.191.

Take A11U U52G: the self-cleavage came to 0.362.

For U7C A23G, the self-cleavage worked out at 0.6.

As for G40A C50A, the self-cleavage is 0.194.

Turning to U8C C65A, the self-cleavage worked out at 0.788.

As to C48G A71G, the self-cleavage stood at 0.142.

Take A49U U53G: the self-cleavage turned out to be 0.167.

As to G32C A45U, the self-cleavage is 0.121.

With U8G A44U, the self-cleavage was 0.184.

As for U5C A22G, the self-cleavage amounted to 0.63.

In the case of A11C A47G, the self-cleavage stood at 0.0993.

Consider G25C U63G, for which the self-cleavage is 0.189.

With A44U A47G, the self-cleavage worked out at 0.0154.

Turning to C6A U8C, the self-cleavage is 0.344.

With G29A A36U, the self-cleavage came out at 0.278.

As to C3G U8G, the self-cleavage worked out at 0.204.

Turning to U2A U9C, the self-cleavage was determined as 0.233.

For the variant C50U A61C, the self-cleavage amounted to 0.181.

Regarding G15U C46A, the self-cleavage came to 0.167.

Take A31U A39C: the self-cleavage stood at 0.0658.

On to G54C A71G, for which the self-cleavage came to 0.438.

For the variant A28G C50A, the self-cleavage amounted to 0.415.

For U5A A30G, the self-cleavage came to 0.119.

With G15A A24U, the self-cleavage stood at 0.688.

U7G A43U: the self-cleavage was 0.123.

U7A A44U: the self-cleavage stood at 0.117.

Take U8C C46A: the self-cleavage is 0.102.

In the case of G17A C38U, the self-cleavage came to 0.512.

In the case of A64G U67C, the self-cleavage came to 0.122.

Regarding U62A A71C, the self-cleavage turned out to be 0.325.

Regarding A31C U60G, the self-cleavage was 0.194.

For the variant U58C U62C, the self-cleavage was 0.369.

For C4A A31G, the self-cleavage amounted to 0.101.

As for G19A G32U, the self-cleavage was found to be 0.175.

For the variant G13U A64U, the self-cleavage was 0.147.

With G34C A43U, the self-cleavage was 0.233.

Regarding U2G G68A, the self-cleavage was determined as 0.166.

For the variant C18U, the self-cleavage was 1.06.

With U7A C38G, the self-cleavage is 0.2.

On to U7A A26C, for which the self-cleavage amounted to 0.174.

In the case of G1A U9G, the self-cleavage came out at 0.293.

Take U33C A59G: the self-cleavage was 0.083.

Consider U7G G27A, for which the self-cleavage was found to be 0.369.

Regarding A43G U70G, the self-cleavage is 0.288.

Regarding A35C C65G, the self-cleavage turned out to be 0.387.

C4A G29A: the self-cleavage was 0.119.

Regarding A45C C65U, the self-cleavage amounted to 0.102.

For U7A C10A, the self-cleavage is 0.736.

For the variant G42A C48U, the self-cleavage is 0.0486.

Take C12G U55C: the self-cleavage came to 0.216.

Consider C50U U58G, for which the self-cleavage came out at 0.262.

For A24U G51A, the self-cleavage was determined as 0.751.
